Experimental findings from PMC5018250, “Structure of the Bacterial Sex F Pilus Reveals an Assembly of a Stoichiometric Protein-Phospholipid Complex” (Cell, 2016) are described below.

The data set deals with the molecule itself. The data set can be described thus: cryo-EM structure; purified F pili in Tris-HCl, 200 mM NaCl, pH 8.0, vitrified; helical reconstruction (IHRSR), two classes with axial rise 12.5 A and 13.2 A, 5.0 A maps.

B1: F TraA pilin (natural protein, E. coli (F plasmid; pOX38 in DH5alpha), UniProt P04737 52-121, looked up)
chain: AGSSGQDLMASGNTTVKATFGKDSSVVKWVVLAEVLVGAVMYMMTKNVKFLAGFAIISVFIAVGMAVVGL
notes: TraA pilin of the F pilus encoded by the F plasmid derivative pOX38; N terminus 4 aa longer than that of pED208 TraA and disordered in the maps; Stands in the pilus as a helical polymer; two filament populations (axial rise 12.5 A and 13.2 A); also called F pilin; F pilus subunit; source: produced in vivo from the pOX38-Cm plasmid in E. coli DH5alpha
For B1, the binding result is listed as “binds”.
